# Reference: US20180064666A1
# Target: GST-Pin1 (UniProt Q13526)
# Experiment: fluorescence polarization; labelled pTide probe titrated with GST-Pin1 (the concentration is that of GST-Pin1)
# GST-Pin1, sequence (Q13526 whole entry): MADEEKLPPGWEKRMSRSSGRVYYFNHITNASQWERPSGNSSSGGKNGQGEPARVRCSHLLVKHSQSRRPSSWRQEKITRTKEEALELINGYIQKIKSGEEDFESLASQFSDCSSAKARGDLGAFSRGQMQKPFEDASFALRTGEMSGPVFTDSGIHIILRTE
row,EC50 (read off the curve),Substance
1,500 nM,"TAMRA-conjugated pTide (N-terminal TAMRA-labeled pTide, Bth-D-phos.Thr-Pip-Nal) (peptide)"
2,500 nM,"pTide-HiLyte™ Fluor 488 (N-terminal HiLyte™ Fluor 488-labeled pTide, Bth-D-phos.Thr-Pip-Nal) (peptide)"
